Source: the DeepSol protein solubility set

Assay: soluble on expression in E. coli; label from the status in PepcDB or PDB records

Sequence: MAAKRPPASTLKWCQQEMGPICEGIGMVVRSQIGYDGRRIEKQIRRKALQTVVMGGQDVDPLKEPNKTNAPLLSPTLPSTNEALQRARVVAAGIETFAKLMSQGTYPGSAGFTVSETGERKYMKQTSPVQSNIVANLMATADKLSKGVISLAPFPLPTITKLGTWVIANPTAQLPIPPQLKSAIPAIGQIETLIQSILGVQGPVSSVSRAPRKLKLEGVTDQVVLEPETIHATVDVEPIDKTLTKEEAEFLIKAARSVDDDNAETAIFGTQKAKPKVYRPELPKNFEVNLEMGNVHTLTRSNESSVPATRIGRLATFGQLAFGLLGGATAEVTRRTFGIGKRLQEEGIPKNPFLSEANADRIVATLCRVRGAALKLGQMLSIQDSSTVPPALLQIFERVRQSADFMPIKQVHRQMKDAFGDDWREKFEHFDDKPFACASIGQVHKAVLKDGRNVAVKVQYPGVAEGIDSDIDNLVSVLSVGGIFPKGMFLDAFVGVARRELKQECDYEREARAMKKFRELIADWQDVYVPEVIDELSSSRVLTTELVYGKPVDACVEEPQVVRDYIAGKFIELCLKEIFLWRFMQTDPNWSNFFLGKHPKTGEPRLVLLDFGASRAYGKKFVDIYMNIIKSAYDGDKKKIIEYSREIGFLTGYETSVMEDAHVESVMIMGETLASNHPYNFANQDVTMRIQKLIPVMLEHRLTSPPEEIYSLHRKLSGCYLLAAKLKATVSCGGLFHEIHENYVFGEDGIDINID
- soluble on expression in E. coli: not soluble

Sequence: MKEVIFTENAPKPIGPYSQAIKAGNFLFIAGQIPIDPKTGEIVKGDIKDQTRQVLENIKAILEAAGYSLNDVIKVTVYLKDMNDFAKMNEVYAEYFGESKPARVAVEVSRLPKDVLIEIEAIAYKE
- soluble on expression in E. coli: soluble

Sequence: MLGFNGERLDPASGAFHLGNGYRAYSPALMRFHCPDSLSPFGASGVNPYAYCAGDPANRADPSGHLSWQAWTGIGLAVASLALAAFTAGTSIIASGGIVAALESASAITLAEGGLAVVSDMTAIACGAMEASDPQAAAALSWVSLACGAMGMVHAGYGAVRGIDRKLGAFLQENSRFLGKITRGERDSLGIPLGGGLTKCFRPASEMEGASAGIALGRLHRSSSTPDMEAFLALPAAKRKRIGSGVSGVVYEAGRGWVVKIAIDPLPIETMEREAEIFRAVHGPRSALVAENMLWMKRIPGVPVNTLNLLADEKAEMWQKTLAEVKRLQEMGIHHGDPSWNNLLFDQQTGTVSFIDFGKSRYLDGFAPATLEHHHHHH
- soluble on expression in E. coli: soluble

Sequence: MKFIHLTDIHLMPPGQSVSGSDPIEKLSKVFEDIATWHSDAEFCVVSGDLADLGDRESYEWLRQRLAHFPVPVFLMLGNHDVRETFISVFPDHPRDANGFIQHAHTAGGARFLFLDTLTGGPDIHDGELCNDRLAWFAAELERAGDMPVYVFLHHPPFDIAIPYVDEIKLRQPDAFHAALQAGRNIRHIFYGHVHRTTYVNWRGYPFTSLPSTNHQVPLIPEREGQEHSAEPLAYGVATIEGDQFTLHVDHYLGK
- soluble on expression in E. coli: not soluble

Sequence: VNFDDIASSENLLHLTANRPKMPGRRLPG
- soluble on expression in E. coli: soluble

Sequence: MNEFEDLLNSVSEVNPGDVVTAEVLTVDGEQANLVIDGTGVEAVLTLRELTNDRNADINDFVKAGDKVEVLVLRQVVGKDTDTVTFLVSKKRLEARKAWDKLVGREGDVVTVKGTRAVKGGLSVEFEGLRGFIPASMIDTRFVRNTEKFVGQQFEAKIKEIDPSENRFILSRRDVVEAAAAKAREEVFSRLAVGDIVTGTVARLTSFGAFIDLGGVDGLVHITELSHERNVSPKSVVTVGEEIQVKVLAIDEEAGRVSLSLKATTPGPWDGVEQKLAAGDVIEGKVKRLTDFGAFVEVLPGIDGLVHISQISHKRVENPKDVLSVGQDVTVKVLDVNTADERVSLSIKALEERPAQDESNGEKRQSRPRRQKRQDKRDYELPETQTGFSMADLFGDIELLEHHHHHH
- soluble on expression in E. coli: soluble

Sequence: MITMNMNDYKNKRVPPDWCPGCGNFAQLSAITMALAELKIDPKDVVVASGIGCSSNMPEFLNTYGFHGLHGRLVPFAAGVKWANSKLTVIAYGGDGDGFFEGTQHFYHTAKRNVDITYMVSDNQVFGLTTGQASPTAPIGLKTKTTPDGNIETPFNPIAFALNAGATFVARAFSGDIKHLKDITVRAIKHKGFSFIDVISPCVTWNKENSYEYFRPRVYHLENNDVTNFDQAYKLAFEWGDHIPIGVFYEVERPTYEDLDEVLKEGPLVEQGIHKLTEDDLEEFA
- soluble on expression in E. coli: not soluble

Sequence: MRNPIMVTTEVAGEPPGQGRKWAAHGTMAAPRVHTDYHPGGGSACSSVKVRSHVGHTGVFFFVDQDPLAVSLTSQSLIPPLIKPGLLKAWGFLLLCAQPSANGHSLCCLLYTDLVSSHELSPFRALCLGPSDAPSACASCNCLASTYYLLEHHHHHH
- soluble on expression in E. coli: not soluble
